Measurements as given in paper PMC10344929, “Crosstalk between regulatory elements in disordered TRPV4 N-terminus modulates lipid-dependent channel activity” (Nature Communications, 2023).

Biological target: T1, Gallus gallus TRPV4 isolated ankyrin repeat domain (residues 135-382) (Gallus gallus, UniProt A0A1D5PXA5 135-382)
T1 construct: TRPV4, Gallus gallus, ankyrin repeat domain, residues 135-382; Made from the NTD vector by Gibson deletion; also called ARD; TRPV4 ARD; source: E. coli BL21-Gold(DE3), purified (Ni-NTA, Ulp-1 cleavage, reverse Ni-NTA, SEC); not shown: His6SUMO, N-terminal, cleaved
Experiment: cross-linking; DSS-H12/D12 cross-linking mass spectrometry; isolated IDR and ARD mixed 1:1; 1.5 nmol DSS per ug protein, 2 h at 4 °C, 1 mg/mL protein, 20 mM HEPES pH 7, 300 mM NaCl
Settings: both partners purified

T1 sequence (A0A1D5PXA5 135-382): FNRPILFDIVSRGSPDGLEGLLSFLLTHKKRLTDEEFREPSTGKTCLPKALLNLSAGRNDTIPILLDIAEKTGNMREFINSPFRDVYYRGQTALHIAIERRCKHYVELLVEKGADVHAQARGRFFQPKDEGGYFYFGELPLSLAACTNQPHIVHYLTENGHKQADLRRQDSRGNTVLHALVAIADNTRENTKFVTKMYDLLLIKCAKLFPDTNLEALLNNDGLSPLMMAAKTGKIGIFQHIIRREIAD

binding result: binds
B1: Gallus gallus TRPV4 isolated intrinsically disordered region (residues 2-134) (domain or fragment, UniProt A0A1D5PXA5 2-134, looked up)
chain: ADPEDPRDAGDVLGDDSFPLSSLANLFEVEDTPSPAEPSRGPPGAVDGKQNLRMKFHGAFRKGPPKPMELLESTIYESSVVPAPKKAPMDSLFDYGTYRQHPSENKRWRRRVVEKPVAGTKGPAPNPPPILKV
notes: TRPV4, Gallus gallus, N-terminal intrinsically disordered region, residues 2-134; Made from the NTD vector by Gibson deletion; also called IDR; TRPV4 IDR; source: E. coli BL21-Gold(DE3), purified (Ni-NTA, Ulp-1 cleavage, reverse Ni-NTA, SEC); not shown: His6SUMO, N-terminal, cleaved
